Measured values published in the nanobody polyreactivity screen of Harvey et al. (2022).

Assay: yeast display, Sf9 membrane polyspecificity reagent, FACS + sequencing; frameworks hold sequencing errors
In short: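 Polyreactivity labels are assigned by the sorting gate from which each nanobody was recovered. The gates were low and high (top ~1%), set on anti-HA fluorescence for expression and streptavidin fluorescence for reagent binding. Before sorting, galactose-induced (36–48 hours) yeast display cells were stained for 1 hour at 4 °C with 10% biotinylated, detergent-solubilized Sf9 membrane reagent.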
In the case of “QVQLVESGGGLVQAGGSLRLSCAASGITLSYNDRGWYRQAHGKEREFVAAITGGGSTYYADSVKGRFTISRDNAKNTVYLQMNSLKPEDTEVYYCAAERWYAWTVLYTVSYGYWGQGTQVTVSS”, the “polyreactivity (PSR sort gate)” value is reported as “high polyreactivity”.
For “QVQLVESGGGLVQAGGSLRLSCAASGITLTRYAMGWYRQAPGKERELVAAISTGGGSTYYADSVKGRFTISRDNAKNTVYLQMNSLKPEDTAVYYCAARIRFARGYPITRTYDYWGQGTQVTVSS”, the “polyreactivity (PSR sort gate)” value was “high polyreactivity”.
For “QVQLVESGGGLVQAGGSLRLSCAASGITLVTYAMGWYRQAPGKERELVAAISRSGGRTYYADSVKGRFTISRDNAKNTVDLQMNSLKPEDTAVYYCATRYHVGKDLYGYWGQGTQVTVSS”, the “polyreactivity (PSR sort gate)” value was “high polyreactivity”.
For “QVQLVESGGGLVQAGGSLRLSCAASGITLYGNAMGWYRQAPGKERELVAAITGRGGSTYYADSVKGRFTISRDNAKNTVYLQMNSLKPEDTAVYYCNKAQSRSQLYGYWGQGTQVTVSS”, the “polyreactivity (PSR sort gate)” value was “high polyreactivity”.
With “QVQLVESGGGLVQAGGSLRLSCAASGITLYRYAMGWYRPAPGKERELVADISSGGGTTYYADSVKGRFTISRDNAKNTVSLQMNSLKPEDTALYYCAADYGFRYPLYDYWGQGTQVTVSS” the “polyreactivity (PSR sort gate)” value was “low polyreactivity”.
In the case of “QVQLVESGGGLVQAGGSLRLSCAASGITLYRYVMGWYRQAPGKERELVADISGRGTSTYYADSVKGRFTISRDNAKNTVYLQMNSLKPEDTAVYYCNAEYTKTGAQREQSFLTRRGPGYDYWGQVTQVTVSS”, the “polyreactivity (PSR sort gate)” value is reported as “low polyreactivity”.
In the case of “QVQLVESGGGLVQAGGSLRLSCAASGITLYYYAMGWYRQAPGKERELVAAISTSGGTTYYADSVKGRFTISRDNAKYTVYLQMNSLKPEDTAVYYCAARRRAFGSTYNYWGQGTQVTVSS”, the “polyreactivity (PSR sort gate)” value is reported as “high polyreactivity”.
With “QVQLVESGGGLVQAGGSLRLSCAASGITQYGYAMGWYRQAPGKEREFVAAISRSGDRTYYADSVKGRYTISRDNAKNTVYLQLNSLKPEDTAVYYCNAWRYDYWGQGTQVTVSS” the “polyreactivity (PSR sort gate)” value was “high polyreactivity”.
For “QVQLVESGGGLVQAGGSLRLSCAASGITSRYYAMGWYRQAPGKERELVAAITSDGRTNYADSVKGRFTISRDNAKNTVYLQMNSLKPEETAVYYCAVARYPYRYDYWGQGTQVTVSS”, the “polyreactivity (PSR sort gate)” value was “high polyreactivity”.
For “QVQLVESGGGLVQAGGSLRLSCAASGITSSYAMGWYRQAPGKERELVAAISRGGSTYYADSVKGRFTISRDTAKNTVYLQMNSLKPEDTAVYYCNKRRYPYGWGQGTQVTVSS”, the “polyreactivity (PSR sort gate)” value was “high polyreactivity”.
For “QVQLVESGGGLVQAGGSLRLSCAASGITYFEYAMGWYRQATGKETELVAGIRFSGSTTYYADSVKGRFTISRDNAKNTVYLQMNSLKPEDTAVYYCNVDYYSGLYDYDSWGQGTQVTVSS”, the “polyreactivity (PSR sort gate)” value was “low polyreactivity”.
With “QVQLVESGGGLVQAGGSLRLSCAASGITYGYNTMGWYRQAPGKERELVADISRSGGRTYYADSVKARFTISRDNAKNTVYLQMNSLKPEDTAVYYCAAVSNSGHYYYWGQGTQVTVSS” the “polyreactivity (PSR sort gate)” value was “high polyreactivity”.
In the case of “QVQLVESGGGLVQAGGSLRLSCAASGITYSYYAMGWYRQAPGKEREFVAAISRTGTSTYYADSVKGRFTISRDNAKNTVYLQMNSLNPEDTADYFCAAVPRHPYHDKYDYWGQGTQVTVSS”, the “polyreactivity (PSR sort gate)” value is reported as “high polyreactivity”.
For “QVQLVESGGGLVQAGGSLRLSCAASGIWNMGWYRQAPGKERELVAAISWSGASTYYADSVKGRFTISRDNAKNTVYLQMNSLKPEDTAVYYCALGFWHTYGYWGQGTQVTVSS”, the “polyreactivity (PSR sort gate)” value was “high polyreactivity”.
For “QVQLVESGGGLVQAGGSLRLSCAASGLFFYAYSMGWYRQAPAKERELVAAISGSGGNTYYADSVKGRFTISRDNAKNSVYLQMNSLKQEDTAVYYCAADYTAAYPDSMYYWGQGTQVTVSS”, the “polyreactivity (PSR sort gate)” value was “low polyreactivity”.
With “QVQLVESGGGLVQAGGSLRLSCAASGLIFAEYTMGWYRQAPGKERELVAAISWNGGSTYYADSVKGRFTISRDNAKNTVYLQMNSLKPEDTAVYYCAARYKRVKWYRYEYWGQGTQVTVSS” the “polyreactivity (PSR sort gate)” value was “high polyreactivity”.
In the case of “QVQLVESGGGLVQAGGSLRLSCAASGLIFAFYAMGWYRQAPVKERELVASIDKSGGSTYADSVKGRFTISRDNAKNTVYLQMNSLKQEDTAVYYCAADYSLIDLFYWGQGTQVTVSS”, the “polyreactivity (PSR sort gate)” value is reported as “low polyreactivity”.
For “QVQLVESGGGLVQAGGSLRLSCAASGLIFAGYAMGWYRQAPGKERELVAAITWRGGRTYADSVKGRFTISRDNAKNTVYLQMNSLKPEDTAVFYCAVRRWGTSFVEDDYWGQGTQVTVSS”, the “polyreactivity (PSR sort gate)” value was “low polyreactivity”.
With “QVQLVESGGGLVQAGGSLRLSCAASGLIFASYAMGWYRQAPGKERELVAAISWSGGSTYYADSVKGRFTISRDNAKNTVYLQMNSLKPEDTAVYYCAARKLFIPKYYYWGQGTQVTVSS” the “polyreactivity (PSR sort gate)” value was “high polyreactivity”.
For “QVQLVESGGGLVQAGGSLRLSCAASGLIFATYTMGWYRQAPGKERELVAAITWSGGRTYYADSVKGRFTISRDNAKNTVYLQMNSLKPEDTAVYYCAADPSYALGYDYWGQGTQVTVSS”, the “polyreactivity (PSR sort gate)” value was “high polyreactivity”.
For “QVQLVESGGGLVQAGGSLRLSCAASGLIFAYNTMGWYRQAPGKERELVAGITSGGSTYYADSVKGRFTISRDNAKNTVYLQMNSLKPEDTAVYYCAAAYRTGSVSFGYWGQGTQVTVSS”, the “polyreactivity (PSR sort gate)” value was “high polyreactivity”.
In the case of “QVQLVESGGGLVQAGGSLRLSCAASGLIFDGNAMGWYRPAPGKERELVADITGSSVRTYYADSVKGRFTISRDNAKNTVSLQMNSLIPEDTAVYYCAATYGYLYTGLSRYDYWGQGTQVTVSS”, the “polyreactivity (PSR sort gate)” value is reported as “low polyreactivity”.
With “QVQLVESGGGLVQAGGSLRLSCAASGLIFDPNTMGWYRQAPGKERELVAAISSGGDTNYADSVKGRFTISRDNAKNTVYLQMNSLKPEDTAVYYCATDIRFHDPSEYEGVDFEFWGQGTQVTVSS” the “polyreactivity (PSR sort gate)” value was “low polyreactivity”.
In the case of “QVQLVESGGGLVQAGGSLRLSCAASGLIFDSYDMGGSRQAPGKERELVAAIRRNGGSTYYADSLKGRFTISRDNAKNTVYLQMNSLIPEDTEVYYCAVDNSGYSGVYWVKMDYWGQGTQVTVSS”, the “polyreactivity (PSR sort gate)” value is reported as “low polyreactivity”.
For “QVQLVESGGGLVQAGGSLRLSCAASGLIFDTNAMGWYRQAPGKERELVAAISLDGGSTYYADSVKGRFTISRDNAKNTVYLQMNSLKPEDTAVYYCNADYYANSITYDSWGQGTQVTVSS”, the “polyreactivity (PSR sort gate)” value was “low polyreactivity”.
With “QVQLVESGGGLVQAGGSLRLSCAASGLIFDTYAMGWYRQAPGKERELVADITWSGGSTYYADSVKGRFTISRDNAKNTVYLQMNSLKPEDTAVYYCAADSVSLFYWDQRYPDEYDYWGQGTQVTVSS” the “polyreactivity (PSR sort gate)” value was “low polyreactivity”.
With “QVQLVESGGGLVQAGGSLRLSCAASGLIFESYVMGWYRQAPGKERELVAAIRSSGGSTYYADSVKGRFTISRDNAKNTVYLQMNSLKPEVTAVYYCSVKGYGEYDYWGQGTQVTVSS” the “polyreactivity (PSR sort gate)” value was “low polyreactivity”.
With “QVQLVESGGGLVQAGGSLRLSCAASGLIFEYYAMGWYRQAPGKERELGAAISGSGGSTYYADSVKGRFTISRDNAKNTVSLQMNSRKPEDTAVDYCNVVGYRWSEFDYWGQGTQVTVSS” the “polyreactivity (PSR sort gate)” value was “low polyreactivity”.
For “QVQLVESGGGLVQAGGSLRLSCAASGLIFFHNGMGWYRQAPGKEREFVAVISSSGGSTYYADSVKGRFTISRDNAKNTVYLQMNSLKPEDTAVYYCAARDYSRRYGYWGQGTQVTVSS”, the “polyreactivity (PSR sort gate)” value was “high polyreactivity”.
In the case of “QVQLVESGGGLVQAGGSLRLSCAASGLIFFTYAMGWYRHAPGKERELVATISRGGRTKYADSVKGRFTISRDNAKNTVYLQMNSLKPEDTAVYYCAAYLSRSYYAYDYWGQGTQVTVSS”, the “polyreactivity (PSR sort gate)” value is reported as “high polyreactivity”.
